{"source": "patent US20230301998", "key": {"[1]": {"test_system": "T1, V5-tagged IFI204 R538A", "T1 sequence": "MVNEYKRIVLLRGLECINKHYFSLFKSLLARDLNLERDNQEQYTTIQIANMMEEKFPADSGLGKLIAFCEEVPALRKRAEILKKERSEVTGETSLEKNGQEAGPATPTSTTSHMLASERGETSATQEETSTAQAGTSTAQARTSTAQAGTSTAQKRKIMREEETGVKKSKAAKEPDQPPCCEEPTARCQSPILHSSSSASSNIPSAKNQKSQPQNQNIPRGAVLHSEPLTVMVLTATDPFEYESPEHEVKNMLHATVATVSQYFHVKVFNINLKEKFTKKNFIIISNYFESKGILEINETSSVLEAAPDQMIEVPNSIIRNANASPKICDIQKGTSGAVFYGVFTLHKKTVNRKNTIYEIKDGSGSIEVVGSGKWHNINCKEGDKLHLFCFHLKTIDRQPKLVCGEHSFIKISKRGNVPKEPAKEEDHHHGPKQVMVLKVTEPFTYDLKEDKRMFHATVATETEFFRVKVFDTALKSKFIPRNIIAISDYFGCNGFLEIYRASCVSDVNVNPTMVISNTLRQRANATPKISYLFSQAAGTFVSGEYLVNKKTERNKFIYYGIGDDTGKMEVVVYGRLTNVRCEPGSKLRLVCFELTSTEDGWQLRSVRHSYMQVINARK"}, "[2]": {"test_system": "T2, V5-tagged IFI204 WT", "T2 sequence": "T1 sequence with A538R"}, "[3]": {"test_system": "T3, V5-tagged IFI204 R12A", "T3 sequence": "T1 sequence with R12A, A538R"}, "[4]": {"test_system": "T4, V5-tagged IFI204 RR12/538AA", "T4 sequence": "T1 sequence with R12A"}}, "note": "Changes are numbered by the printed parent chain.", "data": [{"substance": "recombinant active PRMT5 plus WDR77", "values": [{"measurement": "in vitro methylation (3H-SAM, autoradiography)", "setting": "[1]", "result": "Immunopurified WT IFI204, but not a mutant form lacking either Arg12, Arg538 or both, was methylated in vitro by recombinant PRMT5"}, {"measurement": "in vitro methylation (3H-SAM, autoradiography)", "setting": "[2]", "result": "IFI204 WT protein was methylated by PRMT5 /WDR77"}, {"measurement": "in vitro methylation (3H-SAM, autoradiography)", "setting": "[3]", "result": "Immunopurified WT IFI204, but not a mutant form lacking either Arg12, Arg538 or both, was methylated in vitro by recombinant PRMT5"}, {"measurement": "in vitro methylation (3H-SAM, autoradiography)", "setting": "[4]", "result": "Immunopurified WT IFI204, but not a mutant form lacking either Arg12, Arg538 or both, was methylated in vitro by recombinant PRMT5"}]}]}
